Biological target: full-length human α isoform of CaMKII (CaMKIIα), wild type (human) (UniProt Q9UQM7)
Experiment: single-molecule TIRF colocalisation; mixed with ATP in the absence of Ca2+/CaM (37°C by the DLS legend)

Sequence of UniProt Q9UQM7 (Q9UQM7 whole entry, canonical isoform): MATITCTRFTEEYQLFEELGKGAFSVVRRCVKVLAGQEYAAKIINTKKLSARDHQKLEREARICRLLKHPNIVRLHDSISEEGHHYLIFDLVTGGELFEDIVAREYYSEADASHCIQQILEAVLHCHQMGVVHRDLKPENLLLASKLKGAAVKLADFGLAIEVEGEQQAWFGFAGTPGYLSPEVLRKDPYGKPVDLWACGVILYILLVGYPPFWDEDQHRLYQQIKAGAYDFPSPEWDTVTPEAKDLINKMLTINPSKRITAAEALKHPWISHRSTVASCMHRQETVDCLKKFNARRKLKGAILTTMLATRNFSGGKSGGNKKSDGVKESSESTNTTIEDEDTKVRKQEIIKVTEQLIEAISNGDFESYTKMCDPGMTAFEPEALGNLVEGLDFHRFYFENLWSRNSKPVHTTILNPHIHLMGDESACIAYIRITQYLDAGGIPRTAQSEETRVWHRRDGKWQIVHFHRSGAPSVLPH

percent colocalisation (plateau): 60%
Substance: CaMKII^T286D, constitutively active mutant of full-length human CaMKIIα (enzyme)
